From patent publication US20240262917A1 (Dana-Farber, published 2024)
Changes are numbered by the printed parent chain. One block for each binder: values may come before it.

Legend:
ALK-LF655FY = target: T1, ALK-LF655FY; assay: immunofluorescence on NIH3T3 cells expressing the construct
T1 construct: also called NIH3T3 ALK LF655FY; MSCV-LF655FY
Method: A 1:100 antibody dilution was used.
Cells (0.5×10⁶ per well) were seeded into six-well plates and grown on glass coverslips for 24 hr. before fixation in 4% paraformaldehyde in PBS for 15 min at room temperature (RT), washed with PBS, permeabilized in 0.1% Triton X-100, and blocked with PBS containing 0.05% Tween-20 and 5% BSA for 1 hr. to block nonspecific binding. […] Images were collected on a Zeiss AXIO Imager Z1 fluorescence microscope. […] After 24 hours, cells were washed once in PBS, fixed in 4% paraformaldehyde in PBS, washed, permeabilized in 0.1% Triton X-100, and blocked in PBS containing 10% horse serum. […] The next day, cells were washed, incubated in goat anti-rabbit IgG secondary antibody (1:1000) for 1 hr. washed, and incubated in Streptavidin-TexasRed (1:1000) for 1 hr. Cover slips were mounted onto slides using mounting medium containing DAPI. Images were collected on a Zeiss AXIO Imager Z1 fluorescence microscope.

Irrel-hFc = target: T2, Irrel-hFc; assay: ELISA of hybridoma supernatant on a plate coated with an irrelevant hFc protein, detection with anti-mouse kappa light chain antibody; control row Co 0.062
T2 construct: also called irrelevant hFc protein
Method: (§1) HAT-selected fused cells were distributed in 96 well plates and the hybridoma supernatants were subjected to several rounds of screening. Initial screening was performed using ELISA against human Fc to test antigen binding with the ALK ECD-human Fc fusion protein. […] These were rescreened by FACS against Ba/F3 and neuroblastoma (NB) cells expressing ALK. […] (A) Binding of hybridoma supernatants using an antigen-binding capture assay. The plate was coated with goat-anti-mouse IgG Fc, incubated with hybridoma supernatants, followed by ALK-HRP and visualized using an HRP substrate. (B) Binding of selected hybridoma supernatants to a human Fc antibody using ELISA screening. Plates were coated with the ALK ECD-human Fc fusion protein (ALK-hFc) together with an irrelevant hFc protein and visualized using an anti-mouse kappa light chain antibody.

ALK-hFc = target: T3, ALK-hFc; assay: ELISA of hybridoma supernatant on a plate coated with ALK-hFc, detection with anti-mouse kappa light chain antibody; control row Co 0.067
T3 construct: also called ALK ECD-human Fc fusion protein; ALK-ECD-hFc; not shown: Human IgG2 Fc of the vector pFUse-hIgG2-FC2, and any vector-derived junction residues
Method: as §1

[1] = target: T4, 140 kDa truncated membrane-bound C-terminal ALK fragment (human, UniProt Q9UM73 655-1620); assay: western blot of NB cell lysates
T4 construct: also called CTF; 140 kDa fragment

[2] = target: T5, Shed ALK extracellular domain fragment (ALK 1-654) (human, UniProt Q9UM73 19-654); assay: sandwich ELISA, 7F7 capture, 8G7 detection, ALK-ECD protein as the varied antigen
T5 construct: Fragment released into conditioned media or serum by cleavage at Asn654-Leu655; also called SF; secreted extracellular fragment
Excerpt: (B) ELISA of the shed ALK ECD protein in sera from patients with neuroblastoma.

Human ALK F1174L = target: T6, Human ALK F1174L (human, UniProt Q9UM73 19-1620); assay: immunofluorescence on SHEP cells expressing ALK F1174L, 1:100 dilution
T6 construct: Expressed in SHEP neuroblastoma cells (IF) and in tumours of the ALK F1174L/MYCN transgenic mouse (IHC)

[3] = target: T7, Full-length human anaplastic lymphoma kinase (ALK) receptor, wild type (human, UniProt Q9UM73 19-1620); assay: western blot of NB cell lysates
T7 construct: Tested in cell lysates (western blot, IP) and on fixed cells (IF, ICC); HA- or FLAG-tagged in the co-IP dimerisation assay and FLAG-tagged and purified in the MMP-9 cleavage assay; also called WT ALK; ALK WT
T7 sequence (Q9UM73 19-1620 limits assumed): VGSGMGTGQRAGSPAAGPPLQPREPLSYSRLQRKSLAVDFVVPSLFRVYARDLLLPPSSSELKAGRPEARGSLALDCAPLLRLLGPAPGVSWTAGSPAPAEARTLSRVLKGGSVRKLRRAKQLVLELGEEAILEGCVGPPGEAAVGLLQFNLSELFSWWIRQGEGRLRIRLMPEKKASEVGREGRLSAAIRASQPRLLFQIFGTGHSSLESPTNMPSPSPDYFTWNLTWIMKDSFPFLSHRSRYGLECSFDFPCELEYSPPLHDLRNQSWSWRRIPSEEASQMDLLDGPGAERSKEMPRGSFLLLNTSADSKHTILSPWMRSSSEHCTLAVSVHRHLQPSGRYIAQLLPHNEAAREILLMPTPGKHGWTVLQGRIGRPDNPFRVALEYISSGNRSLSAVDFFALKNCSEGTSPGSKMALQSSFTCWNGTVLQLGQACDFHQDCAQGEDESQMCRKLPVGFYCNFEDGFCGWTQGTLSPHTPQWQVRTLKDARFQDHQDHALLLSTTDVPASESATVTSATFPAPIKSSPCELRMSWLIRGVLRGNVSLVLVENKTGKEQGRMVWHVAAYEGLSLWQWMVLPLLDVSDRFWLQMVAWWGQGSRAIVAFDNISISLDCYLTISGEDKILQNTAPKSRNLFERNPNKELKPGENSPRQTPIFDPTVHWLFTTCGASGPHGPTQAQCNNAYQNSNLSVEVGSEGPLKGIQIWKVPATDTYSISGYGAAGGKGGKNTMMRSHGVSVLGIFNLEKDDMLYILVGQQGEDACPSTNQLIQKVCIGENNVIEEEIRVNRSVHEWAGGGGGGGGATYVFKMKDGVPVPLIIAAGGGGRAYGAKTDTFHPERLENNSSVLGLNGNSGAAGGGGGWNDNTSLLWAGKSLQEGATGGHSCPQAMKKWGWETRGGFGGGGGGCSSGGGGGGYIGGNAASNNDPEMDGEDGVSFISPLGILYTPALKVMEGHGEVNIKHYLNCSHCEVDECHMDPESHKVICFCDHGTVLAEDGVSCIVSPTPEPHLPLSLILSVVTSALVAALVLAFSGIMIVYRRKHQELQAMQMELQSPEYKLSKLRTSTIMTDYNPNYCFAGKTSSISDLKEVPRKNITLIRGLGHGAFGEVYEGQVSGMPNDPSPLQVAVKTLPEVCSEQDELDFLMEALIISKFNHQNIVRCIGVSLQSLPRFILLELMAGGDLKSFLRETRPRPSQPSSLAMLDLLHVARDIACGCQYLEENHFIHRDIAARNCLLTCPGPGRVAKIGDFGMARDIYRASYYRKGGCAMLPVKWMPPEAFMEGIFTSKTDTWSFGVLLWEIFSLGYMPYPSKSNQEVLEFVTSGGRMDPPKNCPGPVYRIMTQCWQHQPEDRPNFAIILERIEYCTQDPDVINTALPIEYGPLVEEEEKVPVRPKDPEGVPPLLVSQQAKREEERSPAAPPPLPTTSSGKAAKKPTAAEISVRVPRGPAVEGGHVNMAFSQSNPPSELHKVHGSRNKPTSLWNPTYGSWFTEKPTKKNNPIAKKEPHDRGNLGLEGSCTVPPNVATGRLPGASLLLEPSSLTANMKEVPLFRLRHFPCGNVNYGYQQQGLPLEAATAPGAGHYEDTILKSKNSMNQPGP

T3 sequence (chain, as listed by the source limits assumed): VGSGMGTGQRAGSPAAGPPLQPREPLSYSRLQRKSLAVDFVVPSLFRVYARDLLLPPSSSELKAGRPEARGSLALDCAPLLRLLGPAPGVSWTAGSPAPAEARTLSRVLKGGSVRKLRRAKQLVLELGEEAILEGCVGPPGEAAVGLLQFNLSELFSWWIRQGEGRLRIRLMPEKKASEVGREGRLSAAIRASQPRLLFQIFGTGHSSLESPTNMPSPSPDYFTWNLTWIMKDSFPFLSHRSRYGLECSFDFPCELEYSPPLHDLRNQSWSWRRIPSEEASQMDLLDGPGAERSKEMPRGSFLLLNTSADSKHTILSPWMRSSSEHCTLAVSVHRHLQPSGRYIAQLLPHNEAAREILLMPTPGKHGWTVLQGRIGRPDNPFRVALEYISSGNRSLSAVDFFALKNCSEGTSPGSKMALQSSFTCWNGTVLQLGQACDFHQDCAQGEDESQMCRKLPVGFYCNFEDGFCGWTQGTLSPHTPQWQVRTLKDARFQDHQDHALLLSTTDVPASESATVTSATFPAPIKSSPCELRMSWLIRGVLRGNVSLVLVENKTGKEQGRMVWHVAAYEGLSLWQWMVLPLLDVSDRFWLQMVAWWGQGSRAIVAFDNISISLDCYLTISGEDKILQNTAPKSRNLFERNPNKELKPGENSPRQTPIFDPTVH
T6 sequence (Q9UM73 19-1620 F1174L limits assumed): as the sequence (Q9UM73 19-1620 limits assumed) above, with F1156L counted along it
T1 sequence (receptor chain, as listed by the source): as the sequence (Q9UM73 19-1620 limits assumed) above, with L637F, F638Y counted along it
T4 sequence (Q9UM73 655-1620): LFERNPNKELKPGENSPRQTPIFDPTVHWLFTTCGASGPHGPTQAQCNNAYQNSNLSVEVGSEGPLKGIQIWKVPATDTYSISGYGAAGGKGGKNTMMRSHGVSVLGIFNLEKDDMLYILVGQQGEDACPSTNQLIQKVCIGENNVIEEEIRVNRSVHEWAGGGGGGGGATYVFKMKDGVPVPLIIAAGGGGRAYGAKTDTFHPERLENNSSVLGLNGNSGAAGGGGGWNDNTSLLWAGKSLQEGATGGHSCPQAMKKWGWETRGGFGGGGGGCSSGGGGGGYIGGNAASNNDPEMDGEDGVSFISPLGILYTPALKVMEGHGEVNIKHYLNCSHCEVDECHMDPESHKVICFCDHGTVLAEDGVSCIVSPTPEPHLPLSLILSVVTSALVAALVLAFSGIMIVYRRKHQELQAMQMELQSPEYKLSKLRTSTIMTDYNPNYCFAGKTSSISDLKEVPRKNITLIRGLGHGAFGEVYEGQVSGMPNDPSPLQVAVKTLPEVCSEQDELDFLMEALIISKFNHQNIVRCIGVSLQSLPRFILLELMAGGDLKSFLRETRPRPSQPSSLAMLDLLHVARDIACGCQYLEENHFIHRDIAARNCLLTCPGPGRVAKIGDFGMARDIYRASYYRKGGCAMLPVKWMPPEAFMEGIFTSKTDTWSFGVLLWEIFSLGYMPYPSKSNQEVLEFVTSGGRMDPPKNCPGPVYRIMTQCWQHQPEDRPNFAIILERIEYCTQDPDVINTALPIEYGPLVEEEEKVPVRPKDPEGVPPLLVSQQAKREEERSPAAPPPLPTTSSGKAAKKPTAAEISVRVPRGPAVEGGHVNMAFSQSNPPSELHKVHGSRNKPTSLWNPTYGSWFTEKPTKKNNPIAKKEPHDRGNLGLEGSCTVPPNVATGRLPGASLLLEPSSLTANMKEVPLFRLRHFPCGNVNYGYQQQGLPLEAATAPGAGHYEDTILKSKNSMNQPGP
T5 sequence (Q9UM73 19-654): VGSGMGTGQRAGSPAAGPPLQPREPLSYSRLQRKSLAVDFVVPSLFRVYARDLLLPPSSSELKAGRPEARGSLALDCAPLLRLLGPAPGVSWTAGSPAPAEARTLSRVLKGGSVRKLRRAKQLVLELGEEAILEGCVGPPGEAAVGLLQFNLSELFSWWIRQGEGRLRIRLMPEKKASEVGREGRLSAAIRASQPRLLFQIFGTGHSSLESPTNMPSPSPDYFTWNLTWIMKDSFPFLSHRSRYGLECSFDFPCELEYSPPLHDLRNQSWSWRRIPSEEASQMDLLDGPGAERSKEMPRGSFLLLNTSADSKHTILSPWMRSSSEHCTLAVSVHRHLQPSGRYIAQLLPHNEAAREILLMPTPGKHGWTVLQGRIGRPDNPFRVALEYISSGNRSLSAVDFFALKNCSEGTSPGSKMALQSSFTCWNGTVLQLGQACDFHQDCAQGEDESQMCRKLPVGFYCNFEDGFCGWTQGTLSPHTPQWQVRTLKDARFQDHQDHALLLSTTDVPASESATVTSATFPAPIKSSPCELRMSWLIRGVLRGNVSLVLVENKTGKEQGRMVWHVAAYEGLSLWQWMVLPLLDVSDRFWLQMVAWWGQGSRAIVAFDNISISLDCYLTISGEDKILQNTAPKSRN

binding result (ALK-LF655FY): binds
ELISA reading (name not given) (Irrel-hFc): 0.064
ELISA reading (name not given) (ALK-hFc): 0.56
binding result [1]: no binding
B1: Mouse monoclonal anti-ALK 8G7 (antibody, IgG1, V domains shown)
VH: QVQLQQSGAELVRPGASVTLSCKASGYTFTDYEMHWVKQTPVHGLEWIGAIDPETGGSAYNQKFKAKAILTADRSSSTAYMELRSLTSEDSAVYYCTRTRYYGSSPAMDYWGQGTSVTVSS
VL: DIQMTQTTSSLSASLGDRVTISCSASQGIGNYLNWYQQKPDGTVKLLIYYTSSLHSGVPSRFSGSGSGTDYSLTISNLEPEDIATYYCQQYSKLPYTFGGGTKLEIK
notes: constant regions are not; also called Ab 8G7; 8G7 N-terminal anti-ALK antibody

binding result [2]: binds
ELISA reading (name not given) (Irrel-hFc): 0.063
ELISA reading (name not given) (ALK-hFc): 0.872
binding result (Human ALK F1174L): binds
binding result [3]: binds
B2: Monoclonal anti-ALK antibody 7F7 (antibody, IgG1, V domains shown)
VH: QVQLQQSGAELVRPGASVTLSCKASGYTFTDYEIHWMKQTPVHGLEWIGTIDPETGGTAYNQKFKGKAILTADKSSSTAYMELRSLTSEDSAVYYCTRCYYGSSWYFDVWGTGTTVTVSS
VL: DIQMTQTTSSLSASLGDRVTISCSASQGISNYLNWYQQKPDGTVKLLIYYTSSLHSGVPSRFSGSGSGTDYSLTISNLELEDIATYYCQQYSKVPRTFGGGTKLEIKR
notes: also called Ab 7F7

ELISA reading (name not given) (Irrel-hFc): 0.064
ELISA reading (name not given) (ALK-hFc): 1.01
B3: Monoclonal anti-ALK antibody 5H3 (antibody, IgG1, V domains shown)
VH: B1 VH
VL: B2 VL with S30G, L80P, V94L, R96Y
notes: The variable part as printed looks identical to that of 8G7; also called Ab 5H3
